The supplement of paper PMC10126150
± gives the standard deviation of the averaged measurements.

System: ATP
Test: switch fluorescence ratio, 500 uM ATP over buffer (Cy3 cluster intensity, sum of 5 cycles each) (fold (ratio)); higher = stronger signal-on switching upon ATP binding; sequences stand for … in TCGTCGGCAGCGTCAGATGTGTATAAGAGACAGTTTTTTTTTTTTTTTTTTTTTTTTT…TC
Conditions: aptamer strand: ATP DNA aptamer (quencher-CACCTGGGGGAGTATTGCGGAGGAAGG + anchor), 100 nM annealed; ATP concentration: 500 uM
Method in brief: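 Imaging in selection buffer was followed by imaging after 15 min with 500 uM ATP at 22 °C, for Cy3-labelled switching-strand clusters annealed to 100 nM quencher-labelled ATP aptamer on a modified Illumina MiSeq flow-cell. Five of these buffer/ATP cycles ran, separated by NaOH stripping and re-annealing. The fluorescence ratio per cluster is summed target-cycle over summed buffer-cycle Cy3 intensity, averaged per switch-domain sequence; clusters outside 100-1000 RFU were removed.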
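Further: ATP exposure 15 min at 22 °C before imaging.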

Sequence | switch fluorescence ratio
AGTCTGCTCG | 1 ± 0.018
AGTCTGGATC | 0.9959 ± 0.0084
AGTCTGGGTA | 0.965 ± 0.016
AGTCTGTCGT | 0.98 ± 0.039
AGTCTTAGGG | 0.972 ± 0.023
AGTCTTCTGG | 1.01 ± 0.026
AGTCTTTTTG | 0.999 ± 0.03
AGTGAAAATG | 1.05 ± 0.029
AGTGAAAATT | 1 ± 0.038
AGTGAGCTGA | 0.9769 ± 0.0069
AGTGAGCTTG | 0.9818 ± 0.0038
AGTGAGGCGC | 1.01 ± 0.024
AGTGAGTCTG | 0.995 ± 0.053
AGTGATATTA | 1.01 ± 0.022
AGTGATGAAG | 0.996 ± 0.037
AGTGATGTGT | 1 ± 0.017
AGTGCAGAGA | 0.989 ± 0.028
AGTGCCCAGG | 2.4 ± 1.6
AGTGCGATGT | 0.988 ± 0.016
AGTGCGTCTC | 0.975 ± 0.012
AGTGCTTGAG | 0.977 ± 0.043
AGTGGAACTT | 0.976 ± 0.036
AGTGGAGGGC | 1.03 ± 0.036

Sequence | switch fluorescence ratio
AGTGGAGTCA | 1.02 ± 0.035
AGTGGCATAG | 0.996 ± 0.022
AGTGGGATAA | 1.11 ± 0.099
AGTGGGCTTT | 0.996 ± 0.037
AGTGGGGATA | 0.986 ± 0.039
AGTGGGGCGT | 1 ± 0.016
AGTGGGGGG | 1.0071 ± 0.001
AGTGGGGGGG | 0.991 ± 0.049
AGTGGGGGGT | 0.991 ± 0.03
AGTGGGTATA | 1.01 ± 0.02
AGTGGGTGGG | 0.9921 ± 0.0049
AGTGGGTTTT | 0.988 ± 0.043
AGTGGTGGCG | 0.9 ± 0.082
AGTGTAAGCC | 0.9622 ± 0.0067
AGTGTACCCA | 1.077 ± 0.01
AGTGTGCATG | 1.03 ± 0.013
AGTGTGCTGG | 1.01 ± 0.043
AGTGTTCGGG | 1 ± 0.043
AGTGTTGCAG | 0.98 ± 0.048
AGTGTTTGG | 0.997 ± 0.02
AGTTAAAGCT | 1.151 ± 0.0063
AGTTAACAGC | 0.959 ± 0.04
AGTTAACTCA | 1.013 ± 0.0056

Sequence | switch fluorescence ratio
AGTTAAGGGT | 0.9925 ± 0.0071
AGTTAATAAT | 1.01 ± 0.032
AGTTAATTTC | 0.989 ± 0.03
AGTTAATTTT | 1.0014 ± 0.0007
AGTTACAGTC | 1.05 ± 0.073
AGTTAGAAAT | 1.02 ± 0.03
AGTTAGGACA | 1 ± 0.031
AGTTAGGCCT | 1.02 ± 0.039
AGTTAGGTTA | 1 ± 0.014
AGTTAGTTCG | 0.969 ± 0.043
AGTTATACGG | 0.995 ± 0.032
AGTTATACGT | 1.03 ± 0.048
AGTTATCCGG | 0.97 ± 0.044
AGTTATGCAC | 1.024 ± 0.0083
AGTTATGTTA | 1 ± 0.022
AGTTCAATT | 0.9971 ± 0.0032
AGTTCACTGG | 0.979 ± 0.02
AGTTCATTT | 0.999 ± 0.019
AGTTCGTCGT | 0.983 ± 0.015
AGTTCGTGGG | 0.973 ± 0.013
AGTTCTACAT | 1.01 ± 0.039
AGTTCTAGGT | 0.986 ± 0.018
AGTTCTATTT | 1.01 ± 0.021

Sequence | switch fluorescence ratio
AGTTGAAGTT | 1.02 ± 0.039
AGTTGAATGT | 0.9647 ± 0.0063
AGTTGAGCTT | 0.987 ± 0.013
AGTTGAGGGC | 0.98 ± 0.047
AGTTGCGATG | 0.985 ± 0.014
AGTTGCGGTC | 0.9516 ± 0.0041
AGTTGCGTCC | 1.01 ± 0.026
AGTTGCTTTT | 0.993 ± 0.036
AGTTGGATGT | 0.977 ± 0.012
AGTTGGGAAC | 1.01 ± 0.015
AGTTGGGCGG | 1.02 ± 0.021
AGTTGGGGAG | 0.9933 ± 0.0023
AGTTGGGGGG | 0.986 ± 0.01
AGTTGGGTGC | 0.99 ± 0.018
AGTTGGTAGC | 1.01 ± 0.011
AGTTGTATGT | 0.951 ± 0.037
AGTTGTGAGG | 1.01 ± 0.026
AGTTGTGCAG | 1.02 ± 0.062
AGTTGTGCCT | 1.015 ± 0.0036
AGTTGTGGGG | 0.995 ± 0.032
AGTTGTTGGG | 0.998 ± 0.013
AGTTGTTTAG | 1.01 ± 0.012
AGTTTAATGT | 1 ± 0.027

Sequence | switch fluorescence ratio
AGTTTACATT | 1.02 ± 0.026
AGTTTATACT | 1.03 ± 0.0032
AGTTTATTAT | 1.02 ± 0.015
AGTTTCAGGT | 1.005 ± 0.006
AGTTTCTGAG | 1.01 ± 0.056
AGTTTCTTTT | 0.994 ± 0.0026
AGTTTGAGGT | 0.995 ± 0.023
AGTTTGATAG | 0.998 ± 0.017
AGTTTGATGA | 0.989 ± 0.028
AGTTTGGCGG | 0.923 ± 0.084
AGTTTGGCGT | 1.01 ± 0.041
AGTTTGGGAG | 0.992 ± 0.021
AGTTTGGGGT | 1.01 ± 0.029
AGTTTGGTCC | 0.997 ± 0.035
AGTTTGGTCT | 0.984 ± 0.034
AGTTTGGTTG | 0.991 ± 0.053
AGTTTGTAGT | 1 ± 0.011
AGTTTGTTGG | 0.989 ± 0.035
AGTTTGTTGT | 1.06 ± 0.095
AGTTTGTTTG | 1.006 ± 0.009
AGTTTTAAGC | 1.01 ± 0.043
AGTTTTAGTC | 1.01 ± 0.017
AGTTTTCCCT | 1.01 ± 0.015

Sequence | switch fluorescence ratio
AGTTTTGAGA | 0.983 ± 0.022
AGTTTTGATG | 0.9784 ± 0.0044
AGTTTTTGAT | 0.9692 ± 0.0068
AGTTTTTGGT | 0.97 ± 0.028
AGTTTTTTGC | 0.908 ± 0.025
AGTTTTTTGT | 0.979 ± 0.042
ATAAAACAAG | 0.99 ± 0.027
ATAAAAGAAT | 0.998 ± 0.0085
ATAAAATATT | 0.998 ± 0.022
ATAAACCTAA | 1.05 ± 0.024
ATAAAGATAG | 1.0006 ± 7.5e-05
ATAAAGGGCG | 1.029 ± 0.01
ATAAAGTGTG | 1.01 ± 0.02
ATAAAGTTGA | 1 ± 0.034
ATAAATAAAA | 0.984 ± 0.036
ATAAATTGCG | 0.9931 ± 0.0086
ATAACAAGGG | 1.04 ± 0.089
ATAACACAGG | 1.279 ± 0.0016
ATAACCCCGA | 1.088 ± 0.0075
ATAACCGCGG | 0.994 ± 0.025
ATAACGAATG | 1.01 ± 0.024
ATAACGCGGT | 0.9967 ± 0.0047
ATAACTGCGG | 1.02 ± 0.012

Sequence | switch fluorescence ratio
ATAAGAAGAT | 1.022 ± 0.0014
ATAAGCACTT | 1.22 ± 0.027
ATAAGCGCGT | 0.999 ± 0.017
ATAAGGCTAA | 0.982 ± 0.016
ATAAGGCTTG | 0.968 ± 0.03
ATAAGGGAGT | 0.9909 ± 0.0033
ATAAGGGCGA | 0.985 ± 0.028
ATAAGGGCGT | 1.001 ± 0.0065
ATAAGGTCTA | 0.971 ± 0.015
ATAAGGTTGT | 0.977 ± 0.025
ATAAGTAAAT | 1 ± 0.018
ATAAGTCCGA | 0.99 ± 0.026
ATAAGTGCTG | 0.991 ± 0.017
ATAATACCTT | 1.15 ± 0.094
ATAATATGTT | 0.9911 ± 0.004
ATAATCAAGG | 1.01 ± 0.032
ATAATCGATT | 0.978 ± 0.011
ATAATCTATC | 0.995 ± 0.045
ATAATCTGCG | 1.01 ± 0.012
